“And” between values parts separate entries of the source, which are not always exact repeats. Equal entries are not always repeated.
Assay: Pharmacokinetic study of intranasal tissue kallikrein (125I-KLK1 tissue concentrations by gamma counting)
Type: in vivo
Details: rat, 30 min. end point, individual animal, listed as kallikrien
Protocol: The purpose of this study was to quantify the amount of tissue kallikrein (KLK1) reaching the central nervous system and peripheral tissues after intranasal administration to anesthetized rats. At 30 min after KLK1 administration, animals were transcardially perfused with ice-cold saline followed by paraformaldehyde fixative and tissues were dissected. The amount of radiolabeled KLK1 in each tissue sample was quantified by gamma counting and tissue concentrations were calculated using tissue weight and gamma counting of standards of the dosing solutions
Adult male Sprague Dawley rats (n=10, mean 335.4 g±4.57 g SE) were used for this study. Animals were group housed in the Regions Hospital Animal Care Facility with free access to food and water. Animals were kept on a 12 h light cycle. All experimental procedures were approved by the Animal Care and Use Committee at Regions Hospital under IACUC protocol number 08-022.
Tissue kallikrein was sent to Perkin-Elmer for ^125I-labelling (Quote NEX-084, lot C1541583). Non-labeled KLK1 from Sigma (cat#K3627-1KU, lot 018K1441) was also used. Non-labeled KLK1 was dissolved in 1×PBS (10×PBS, Sigma, cat #P5493, lot 027K8405 diluted in sterile water). The average dose was 48.1 μL, 75 μCi, and 2.6 mg.
• a. Prior to anesthesia, each rat was weighed. • b. An anesthesia cocktail was prepared and full, half, and quarter anesthesia doses were calculated according to the animal's weight with a full dose containing 30 mg/kg ketamine, 6 mg/kg xylazine, and 1 mg/kg acepromazine. • c. A 1-cc syringe fitted with a 25 G or 27 G, ½ inch needle was assembled and a full dose was drawn into the syringe for injection. • d. Rats were restrained in a towel as follows. Rats were placed ventral side down in the middle of a hand towel. The towel was then wrapped around the head and shoulders to restrain. Wrapped animals remained ventral side down while the left hind leg was located. • e. The left hind leg was drawn to the side and the needle was inserted just beneath the skin (subcutaneous) above the thigh. After ensuring that the needle was placed subcutaneously (and not intramuscularly), full doses were injected. Rats were placed in holding cages and the injection time noted. Animals should be under within 5 min. • f. Anesthesia was monitored throughout the procedures by assessing reflexes using pinching of the hind paw or tail. If a reflex was present, a half or quarter dose booster was administered as necessary. • g. During drug administration, animals received a half dose booster roughly 20-25 min after initial dose. Intranasal Delivery of ^125I-KLK1 • a. Anesthetized rats were placed on their backs on a heating pad in a metal surgical tray. The heating pad was connected to a thermostat and was automatically regulated to maintain a 37° C. temperature based on continuous measurement from a rectal probe. • b. A 2″×2″ gauze pad was rolled tightly into a pillow, taped together, and under the neck to maintain a correct neck position horizontal with the counter. • c. A lead impregnated shield was placed between the surgical tray and the experimenter for protection against radiation. The dose solution, pipette, pipette tips, and waste receptacle were arranged behind the shield for easy access. • d. A 6 μL drop was loaded into the pipette behind the shield. • e. A cotton swab covered in parafilm was used to occlude one naris completely (the flat part of the swab was pushed gently against the naris to prevent airflow), while the 6 μL drop was expelled slowly from the pipette (held at a 45° angle from the rat's midline), forming a drop on the pipette tip. The drop was lowered onto the open naris to be inhaled. • f. After two minutes, the alternate naris was occluded and a 6 μL drop was administered in the same fashion. • g. A drop was administered as described above every two minutes to alternating nares until a total of 8 drops was delivered (4 to each naris) over 14 min. • h. […]

B1: tissue kallikrein: serine protease that cleaves kininogen into kallidin; polypeptide SEQ ID NO:1 (Sus scrofa kallikrein 1), KLK1 from Sigma (protein, listed as Sus scrofa)
chain: MWSLVMRLALSLAGTGAAPPIQSRIIGGRECEKDSHPWQVAIYHYSSFQCGGVLVDPKWVLTAAHCKNDNYQVWLGRHNLFENEVTAQFFGVTADFPHPGFNLSLLKNHTKADGKDYSHDLMLLRLQSPAKITDAVKVLELPTQEPELGSTCQASGWGSIEPGPDDFEFPDEIQCVELTLLQNTFCADAHPDKVTESMLCAGYLPGGKDTCMGDSGGPLICNGMWQGITSWGHTPCGSANKPSIYTKLIFYLDWINDTITENP
modifications: 125I label in one form
  concentration in Lung (R, top lobe): 48.6 nM and 48.7 nM and 46.8 nM and 18.2 nM and 37.2 nM and 30.1 nM and 27.9 nM and 24.4 nM and 64.3 nM and 25.5 nM
  concentration in Medulla: 12.3 nM and 9.9 nM and 13.99 nM and 17.4 nM and 11.1 nM and 21.0 nM and 21.1 nM and 10.6 nM and 20.5 nM and 10.8 nM
  concentration in Midbrain: 12.3 nM and 9.5 nM and 13.1 nM and 15.3 nM and 10.0 nM and 15.9 nM and 9.9 nM (2×) and 16.4 nM
  concentration in Muscle (R, deltoid): 24.2 nM (2×) and 17.7 nM and 17.5 nM and 15.8 nM and 12.4 nM and 16.5 nM and 23.1 nM and 29.3 nM and 33.2 nM
  concentration in Occipital Cortex: 9.8 nM (2×) and 9.6 nM and 12.7 nM and 12.3 nM and 14.1 nM and 14.0 nM and 13.6 nM and 19.2 nM
  concentration in Olfactory Bulbs: 44.4 nM and 39.9 nM and 128.1 nM and 168.8 nM and 66.2 nM and 220.9 nM and 123.5 nM and 74.5 nM and 157.1 nM and 48.2 nM
  concentration in Olfactory Epithelium: 17,707.4 nM and 21,919.4 nM and 21,270.9 nM and 41,836.8 nM and 17,083.5 nM and 31,983.9 nM and 38,661.3 nM and 13,736.3 nM and 17,247.4 nM and 26,179.4 nM
  concentration in Optic Chiasm: 20.7 nM and 14.4 nM and 41.3 nM and 34.7 nM and 51.4 nM and 8.4 nM and 38.2 nM and 27.0 nM and 28.7 nM
  concentration in Parietal Cortex: 7.5 nM and 8.5 nM and 10.5 nM and 9.0 nM and 10.1 nM and 18.5 nM and 14.3 nM and 12.8 nM and 17.6 nM and 12.3 nM
  concentration in Pituitary: 86.9 nM and 44.0 nM and 58.9 nM and 51.8 nM and 79.3 nM and 59.7 nM and 44.3 nM and 67.9 nM and 48.1 nM
  concentration in Pons: 12.4 nM and 10.0 nM and 13.9 nM and 16.2 nM and 10.1 nM and 22.0 nM and 18.6 nM and 10.6 nM and 20.4 nM and 10.2 nM
  concentration in Posterior Trigeminal Nerve: 82.3 nM and 37.8 nM and 60.5 nM and 48.7 nM and 47.7 nM and 50.2 nM and 35.9 nM and 70.5 nM and 32.6 nM
  concentration in Renal artery (L): 56.2 nM and 67.3 nM and 103.1 nM and 52.8 nM and 55.8 nM and 26.1 nM and 43.0 nM and 78.9 nM and 66.9 nM and 31.2 nM
  concentration in Respiratory Epithelium: 78,502.7 nM and 75,759.2 nM and 26,815.1 nM and 82,292.8 nM and 126,759.8 nM and 34,402.4 nM and 71,775.8 nM and 107,890.6 nM and 91,206.0 nM and 64,295.5 nM
  concentration in Septal Nucleus: 9.5 nM and 8.2 nM and 13.3 nM and 13.6 nM and 10.2 nM and 19.4 nM and 12.9 nM and 9.8 nM and 12.0 nM
  concentration in Spinal Dura: 23.1 nM and 26.3 nM and 36.1 nM and 21.4 nM and 16.9 nM and 26.6 nM and 26.2 nM and 39.7 nM and 20.1 nM and 29.5 nM
  concentration in Spleen (tip): 29.0 nM and 81.5 nM and 35.1 nM and 87.5 nM and 91.1 nM and 82.9 nM and 75.4 nM and 89.8 nM and 73.8 nM and 80.0 nM
  concentration in Striatum: 8.2 nM and 5.5 nM and 8.5 nM and 6.7 nM and 7.23 nM and 14.9 nM and 10.4 nM and 9.5 nM and 15.1 nM and 11.9 nM
  concentration in Superficial Nodes (2): 58.8 nM and 39.9 nM and 42.2 nM and 60.1 nM and 66.8 nM and 69.0 nM and 94.2 nM and 68.9 nM and 68.0 nM
  concentration in Temporal Cortex: 9.9 nM and 7.8 nM and 11.65 nM and 10.4 nM and 14.2 nM and 16.6 nM and 15.6 nM and 12.5 nM and 13.7 nM and 11.5 nM
  concentration in Thalamus: 7.9 nM and 6.7 nM and 12.2 nM (2×) and 10.5 nM and 8.1 nM and 15.4 nM and 14.0 nM and 7.2 nM and 9.1 nM
  concentration in Thoracic Spinal Cord: 5.5 nM and 5.1 nM and 6.7 nM and 4.5 nM and 4.2 nM and 6.5 nM and 4.7 nM and 5.7 nM and 4.1 nM and 5.0 nM
  concentration in Thyroid: 1,730.9 nM and 2,077.1 nM and 2,106.5 nM and 1,369.2 nM and 2,644.1 nM and 2,380.4 nM and 1,219.8 nM and 2,016.7 nM and 2,148.4 nM and 2,013.3 nM
  concentration in Trachea: 58.5 nM and 116.8 nM and 64.5 nM and 93.6 nM and 44.8 nM and 59.3 nM and 65.1 nM and 110.6 nM and 86.4 nM
  concentration in Upper Cervical Spinal Cord: 16.0 nM and 17.0 nM and 18.18 nM and 31.6 nM and 18.8 nM and 35.1 nM and 37.2 nM and 20.4 nM and 27.0 nM and 12.8 nM
  concentration in Urine: 249.2 nM and 79.5 nM and 190.9 nM and 57.8 nM and 51.1 nM and 65.6 nM and 287.4 nM and 95.8 nM and 139.2 nM and 90.6 nM
  concentration in Ventral Dura: 113.7 nM and 71.6 nM and 29.8 nM and 138.3 nM and 165.6 nM and 259.4 nM and 192.6 nM and 150.8 nM and 211.8 nM and 96.1 nM
